Measured values reported in US7871610B2, “Antibodies to Tie1 ectodomain” (Dyax Corp., priority 2003, dated 2011).

Target: T1, Tie1-EpoR chimeric receptor (UniProt P14753+P35590)
T1 construct: the PCR amplified extracellular part of human Tie1 (bp 37-2316 of X60975); expressed in transfected cells
T1 sequence (P35590+P14753 with tags, fused parts or gaps): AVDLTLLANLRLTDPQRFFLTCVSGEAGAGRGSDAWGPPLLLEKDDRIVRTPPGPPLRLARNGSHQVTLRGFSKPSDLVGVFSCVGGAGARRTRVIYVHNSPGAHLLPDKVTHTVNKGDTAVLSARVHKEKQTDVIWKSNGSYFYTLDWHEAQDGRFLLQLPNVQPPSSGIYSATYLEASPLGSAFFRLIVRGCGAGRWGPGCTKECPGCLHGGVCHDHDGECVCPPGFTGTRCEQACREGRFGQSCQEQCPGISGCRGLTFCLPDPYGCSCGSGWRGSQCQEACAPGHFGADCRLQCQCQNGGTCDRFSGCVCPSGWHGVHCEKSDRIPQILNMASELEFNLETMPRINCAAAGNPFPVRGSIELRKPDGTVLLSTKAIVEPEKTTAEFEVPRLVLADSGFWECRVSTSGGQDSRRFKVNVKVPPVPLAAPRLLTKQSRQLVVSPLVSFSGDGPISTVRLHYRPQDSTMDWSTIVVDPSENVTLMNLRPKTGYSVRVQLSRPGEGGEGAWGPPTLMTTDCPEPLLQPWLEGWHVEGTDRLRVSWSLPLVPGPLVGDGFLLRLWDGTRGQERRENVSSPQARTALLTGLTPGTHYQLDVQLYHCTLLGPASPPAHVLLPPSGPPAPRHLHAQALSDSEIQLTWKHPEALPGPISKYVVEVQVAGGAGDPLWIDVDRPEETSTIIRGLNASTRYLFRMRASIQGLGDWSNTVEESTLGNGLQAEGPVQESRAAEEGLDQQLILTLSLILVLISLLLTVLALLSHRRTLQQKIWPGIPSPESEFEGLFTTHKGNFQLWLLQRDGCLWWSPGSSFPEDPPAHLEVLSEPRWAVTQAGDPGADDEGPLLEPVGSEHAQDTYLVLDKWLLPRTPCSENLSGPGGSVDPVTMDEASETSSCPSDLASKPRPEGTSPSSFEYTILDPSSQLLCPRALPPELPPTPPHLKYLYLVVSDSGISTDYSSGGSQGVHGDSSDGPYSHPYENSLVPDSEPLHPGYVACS
Assay: Ba/F3 bioassay (Tie1/EpoR chimeric BaF3 cell assay), MTT viability
Type: cell-based, human
Conditions: for survival/viability of Tie1-EpoR Ba/F3 cells: antibody alone, no IL-3
Method in brief: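 Ba/F3 cells expressing human Tie1 extracellular domain fused to mouse EpoR transmembrane/cytoplasmic domains, seeded at 50 000 cells/well with anti-Tie1 antibodies for 48 h. Non-expressing Zeocin-resistant pools served as controls. Survival read by MTT (0.5 mg/ml, 2 h), SDS/HCl lysis overnight at 37 °C, absorbance at 540 nm.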

B1: E3: human anti-Tie1 antibody from Fab phage library; HC SEQ ID NO:114, LC SEQ ID NO:116 (antibody, V domains shown)
VH: EVQLLESGGGLVQPGGSLRLSCAASGFTFSMYGMVWVRQAPGKGLEWVSVISPSGGNTGYADSVKGRFTISRDNSKNTLYLQVNSLRAEDTAVYYCARAPRGYSYGYYYWGQGTLVTVSSASTKGPSVFPLAPSSKSTSGG
VL: DIQMTQSPLSLSASVGDRVTITCRASQGIGHYLAWYQQKPGKVPKLLIYTASTLQSGVPSRFSGSGSGTDFTLTINSLQPEDVATYYCQQFNSYPHTFGQGTRLDIK
modifications: Synthetically generated peptide
With B1 the “concentration giving almost maximal viability in Tie1-EpoR cell survival assays” value (Tie1-EpoR Ba/F3 cells) was 50 ng/mL, the “Average MTT activity in BaF3 cell assay” value (Tie1-EpoR Ba/F3 cells, 48 h, absorbance 540 nm, E3 IgG 100 ng/ml together with 100 or 500 ng/ml of the other antibody) was 0.61 and the “survival/viability of Tie1-EpoR Ba/F3 cells” value was “functions as a Tie1 activating antibody”. The “survival/viability of Tie1-EpoR Ba/F3 cells” value (listed as E3 IgG) was “able to promote survival” and the “viability of EpoR Ba/F3 cells used as a control” value (control cells not expressing Tie1-EpoR) was “not affected”.
